According to PMC11533912 (Journal of Nuclear Medicine, 2024):
“Also recorded” adds a separate entry of the source.

Key:
PC-3 xenograft tumors = experiment: α-imaging and biodistribution in PC-3 tumors of varying size; assay type: in vivo, mice
Experimental: (§1) For all tumor studies, 1 × 10^6 PC-3 cells were implanted subcutaneously into the right flank of each mouse in a mixture of equal volumes of HC-Matrigel (high concentration; Corning) and RPMI medium (Gibco) and grown to a volume of about 200–300 mm^3.
Images were analyzed using Andor Solis software (ImageJ).
FIGURE 5. Biodistribution in varying-size tumors and drug microdistribution in tumor using α-imaging of [^212Pb]Pb-DOTAM-GRPR1. […] (B) Biodistribution of drug at 4 h after injection in tumors measuring 150 mm^3 (n = 5), 300 mm^3 (n = 6), 600 mm^3 (n = 4), and 900 mm^3 (n = 3). In left panel, tissue uptake is expressed as %ID/g ± SD (P < 0.05). Right panel is expressed as %ID ± SD. H&E = hematoxylin and eosin; LWH = length × width × height.

[1] = Biodistribution at different specific activity (28, 140, 280 ng peptide); assay type: in vivo, PC-3 tumor-bearing mice
Experimental: as §1
(§2) PC-3 tumors were grown in male mice until an approximate tumor volume of 300 mm^3 was reached. […] The background was automatically subtracted from the counts. A standard was also used for decay correction, and the percent injected dose (%ID) per gram of tissue was calculated for each organ collected.
(§3) FIGURE 3. In vivo distribution of [^212Pb]Pb-DOTAM-GRPR1. (A) In athymic nude male mice carrying subcutaneous PC-3 tumors, 370 kBq of drug were administered and organs were collected from 5 mice per time point: 1, 4, and 24 h after injection. (B) At different specific activity in PC-3 tumor-bearing mice, 370 kBq per 28, 140, or 280 ng of DOTAM-GRPR1 were administered and organs were collected from 5 mice per time point: 1, 4, and 24 h after injection. Tissue uptake is expressed as %ID/g ± SD (n = 5). All tissues with uptake below 2% at 1 h were excluded from graph. ***P = 0.00013 between 280 ng of pancreas and 28 ng of pancreas.

[2] = Toxicity (dose escalation) study in tumor-free nude mice
Experimental: Control mice received buffer only. Animals were weighed 3 times per week and monitored daily for signs of pain or distress over a 4-wk period after the last injection. Blood was sampled via the submandibular vein using potassium–ethylenediaminetetraacetic acid capillaries and tubes (Greiner Bio-One), and complete cell blood counts were performed using a VETSCAN HM5 hematology analyzer (Abaxis/Zoetis). Animals were euthanized at the scheduled termination or when the termination criteria were met.
Mice were euthanized when tumor volumes reached 1,000 mm^3 (length × width × height) or other predetermined termination criteria were met (weight loss > 15% for 2 consecutive days or 20% weight loss from initial weight, serious bleeding, necrosis or ulceration of the tumor, scruffiness or lack of grooming over 5 d, lethargy over 3 d, weakness/balance issues over 5 d, hunchback appearance, diarrhea, or hypothermia).

[3] = in vivo
[4] = Biodistribution in PC-3 tumor-bearing mice; assay type: in vivo, athymic nude male mice
Experimental: as §1, §2, §3

[5] = Dosimetry: absorbed radiation dose calculation from mouse biodistribution; conditions: for Estimated absorbed dose, pancreas / Estimated absorbed dose, red marrow / Estimated absorbed dose, urinary bladder wall / Estimated absorbed dose, kidneys / Estimated absorbed dose, spleen / Estimated absorbed dose, liver / Estimated absorbed dose, heart wall / Estimated absorbed dose, stomach (stem cell layer) / Estimated absorbed dose, lungs (alveolar–interstitial): RBE 5, female mice; for Estimated absorbed dose, red marrow: dose limit 2; for Estimated absorbed dose, urinary bladder wall: dose limit 20; for Estimated absorbed dose, kidneys: dose limit 23; for Estimated absorbed dose, spleen: dose limit 26; for Estimated absorbed dose, liver: dose limit 30; for Estimated absorbed dose, heart wall / Estimated absorbed dose, stomach (stem cell layer): dose limit 45; for Estimated absorbed dose, lungs (alveolar–interstitial): dose limit 65; for Administered activity at which 23-Gy kidney threshold is reached: female mice as printed, projected mean absorbed dose by modeling
Experimental: Physical decay was used to extrapolate after the last time point. The human equivalent time-integrated activity coefficient for both sexes was calculated by extrapolating mouse biodistribution data to human using standard methods assuming that tissue concentration divided by whole-body concentration in mice is the same as that in humans.
The linear energy transfer of α-particles is approximately 400 times greater than that of photons and β-particles. This difference in energy deposition density leads to fundamentally different biologic effects. Accordingly, the absorbed doses for these different emission types should be weighted appropriately to reflect likely biologic effects. The relative biological effectiveness (RBE) is the appropriate weighting factor for deterministic effects such as tissue toxicity and tumor kill efficacy. The tissue-absorbed doses (with RBE values of 3 and 5) for ^212Pb compounds were calculated.

[6] = Biodistribution in tumor-free CD-1 mice; assay type: in vivo
[7] = 370 kBq per 28, 140 or 280 ng DOTAM-GRPR1, PC-3 tumor-bearing mice

## CC(C)C[C@H](NC(=O)C[C@H](O)[C@H](CC(C)C)NC(=O)[C@H](Cc1c[nH]cn1)NC(=O)CNC(=O)[C@@H](NC(=O)[C@H](C)NC(=O)[C@H](Cc1c[nH]c2ccccc12)NC(=O)[C@H](CCC(N)=O)NC(=O)[C@@H](Cc1ccccc1)NC(=O)CCNC(=O)CCNC(=O)CN1CCN(CC(N)=O)CCN(CC(N)=O)CCN(CC(N)=O)CC1)C(C)C)C(N)=O [[^212Pb]Pb-DOTAM-GRPR1, metal not drawn]
PC-3 xenograft tumors; 4 h after injection, tumors 150 (n = 5), 300 (n = 6), 600 (n = 4), 900 mm^3 (n = 3), visible in %ID/g but not in %ID
  Correlation of tumor volume and tumor uptake: negative correlation between tumor volume and tumor uptake; also recorded: lower tumor uptake in large tumors (%ID/g but not %ID)
PC-3 xenograft tumors; tumor sizes up to 900 mm^3, except necrotic areas
  Microdistribution in PC-3 tumors (α-imaging, H&E): homogeneous distribution of the drug at various tumor sizes of up to 900 mm^3, except for the necrotic areas; also recorded: homogeneous microdistribution
[1]; [7]
  Effect of low specific activity on tumor uptake: did not negatively impact tumor uptake
  Effect of lowering specific activity on off-target accumulation: low specific activity reduced off-target accumulation; also recorded: further reduced off-target accumulation, especially in the pancreas
[1]; 370 kBq per 28 vs 280 ng DOTAM-GRPR1, PC-3 tumor-bearing mice, n = 5 per time point, P = 0.00013
  Reduction of pancreatic uptake on increasing peptide amount from 28 to 280 ng: about 30%
[2]; 1,665 kBq, 30 d, athymic nude male mice
  Hematologic toxicity or weight loss: no hematologic toxicity or weight loss
[2]; 1,665 kBq, full 30-d period, athymic nude male mice
  Survival in acute toxicity study: all animals survived for the full 30-d period
[2]; all groups, male athymic nude mice
  Histopathologic examination: all groups were essentially within the normal limits
[2]; doses used, 370–1,665 kBq single or 3 × 370 or 555 kBq, male athymic nude mice
  Tolerability / signs of radiation or lead injury: well tolerated at the doses used, with no signs of radiation or lead injury
[2]; highest dose: single 1,665 kBq or 3 fractionated doses of 555 kBq, tumor-free nude male mice
  Body weight loss: body weight loss was minimal after administration and was followed by body weight gain
[2]; histopathology, male athymic nude mice
  Kidneys, gastrointestinal mucosa, bone marrow and other organs: unremarkable
[2]; male athymic nude mice, intravenous
  Toxic dose: more than 1,665 kBq
[2]; up to, mice, intravenous
  Nontoxic dose: up to 1,665 kBq
[3]
  Route of excretion: predominantly renal route of excretion
[4]; 4–24 h after administration, 370 kBq, intravenous, athymic nude male mice, n = 5 per time point
  PC-3 tumor uptake over time: remained constant for 4–24 h after drug administration
[4]; PC-3 tumor-bearing mice
  Washout, pancreas versus tumor: faster washout was observed from the pancreas than from tumor tissues
[4]; mouse, PC-3 tumor, 1 h after administration, 370 kBq, intravenous (tail vein), athymic nude male mice, n = 5 per time point
  tissue uptake at 1 h: ~5 %ID/g
[4]; nonclinical, mice
  Biodistribution profile, activity in nontumor tissues: safe biodistribution profile with a considerably low activity in nontumor tissues
[4]; up to value, over 24 h, intravenous, GRPR-positive prostate tumor-bearing mice
  Tumor targeting: up to 5 percent injected dose per gram
[4]; without renal blocker, comparator ref 9
  Kidney uptake compared with radiolabeled somatostatin receptor ligands such as [^212Pb]Pb-DOTAMTATE with renal blocker: well below kidney retention values of radiolabeled somatostatin receptors ligands
[5]
  Radiation type contribution to total absorbed dose: α-radiation comprised most of the total absorbed dose
[5]; 0.111 GBq (3 mCi)
  Estimated absorbed dose, pancreas: 0.287 grays
  Estimated absorbed dose, red marrow: 0.001 grays
  Estimated absorbed dose, urinary bladder wall: 0.021 grays
  Estimated absorbed dose, kidneys: 0.308 grays
  Estimated absorbed dose, spleen: 0.018 grays
  Estimated absorbed dose, liver: 0.109 grays
  Estimated absorbed dose, heart wall: 0.007 grays
  Estimated absorbed dose, stomach (stem cell layer): 0.044 grays
  Estimated absorbed dose, lungs (alveolar–interstitial): 0.022 grays
[5]; 0.555 GBq (15 mCi)
  Estimated absorbed dose, pancreas: 1.434 grays
  Estimated absorbed dose, red marrow: 0.004 grays
  Estimated absorbed dose, urinary bladder wall: 0.103 grays
  Estimated absorbed dose, kidneys: 1.540 grays
  Estimated absorbed dose, spleen: 0.091 grays
  Estimated absorbed dose, liver: 0.543 grays
  Estimated absorbed dose, heart wall: 0.036 grays
  Estimated absorbed dose, stomach (stem cell layer): 0.219 grays
  Estimated absorbed dose, lungs (alveolar–interstitial): 0.108 grays
[5]; 1.110 GBq (30 mCi)
  Estimated absorbed dose, pancreas: 2.867 grays
  Estimated absorbed dose, red marrow: 0.008 grays
  Estimated absorbed dose, urinary bladder wall: 0.206 grays
  Estimated absorbed dose, kidneys: 3.080 grays
  Estimated absorbed dose, spleen: 0.183 grays
  Estimated absorbed dose, liver: 1.086 grays
  Estimated absorbed dose, heart wall: 0.071 grays
  Estimated absorbed dose, stomach (stem cell layer): 0.438 grays
  Estimated absorbed dose, lungs (alveolar–interstitial): 0.216 grays
[5]; calculated mean effective absorbed dose
  Dose-limiting organ: kidney as the dose-limiting organ; also recorded: the kidneys were shown to be dose-limiting
[5]; RBE 3
  Administered activity at which 23-Gy kidney threshold is reached: 13.6 GBq
[5]; RBE 5
  Administered activity at which 23-Gy kidney threshold is reached: 8.3 GBq
[5]; male and female mice
  Organs with highest absorbed doses: the kidneys and pancreas revealed the highest doses for both male and female animals; also recorded: The kidneys and pancreas received the highest dose
[5]; maximum 8.29 GBq (224.05 mCi)
  Estimated absorbed dose, pancreas: 21.42 grays
  Estimated absorbed dose, red marrow: 0.06 grays
  Estimated absorbed dose, urinary bladder wall: 1.54 grays
  Estimated absorbed dose, kidneys: 23.00 grays
  Estimated absorbed dose, spleen: 1.37 grays
  Estimated absorbed dose, liver: 8.11 grays
  Estimated absorbed dose, heart wall: 0.53 grays
  Estimated absorbed dose, stomach (stem cell layer): 3.27 grays
  Estimated absorbed dose, lungs (alveolar–interstitial): 1.61 grays
[6]; 24 h after injection, pancreas and kidneys, strain not clearly stated
  Pancreas and kidney accumulation at 24 h: significantly less accumulation by 24 h after injection
[6]; mouse, all tissues, intravenous, 4 h after drug administration, tumor-free CD-1 mice, 'well below'
  tissue uptake at 4 h: < 10 %ID/g
[6]; pancreas and kidneys, strain not clearly stated
  Nontarget uptake ranking: The pancreas and kidneys showed the highest nontarget uptake
[6]; tumor-free CD-1 mice
  Biodistribution profile / accumulation in normal organs: did not reveal any unexpected accumulation in normal organs
